For this experiment, the target named is T1, Her2 (UniProt P04626 23-652, limits assumed).
T1 construct: also called Her2/neu; Neu
As to the kind of experiment: method not stated; affinity for Her2.

These results are taken from patent US20080206136A1 (University of Pennsylvania, published 2008).

Bridges are numbered along the chain shown (N, C = ends). Where no end group is shown, it is not given here.

B1: AHNP peptide (peptide)
peptide: FCDGFYACYMDV
modifications: disulfide 2-8 (inferred)
notes: also called anti-Her2 peptide
In the case of B1, binding was characterised by a dissociation constant (Kd) of 350 nM.

A word on the Kd: it is the constant that tells how readily two partners part at equilibrium. Lower therefore signals a tighter complex.
